{"source": "patent US20220364074", "about": "“RNA-GUIDED NUCLEASES AND ACTIVE FRAGMENTS AND VARIANTS THEREOF AND METHODS OF USE” (LIFEEDIT THERAPEUTICS, INC., published 2022)", "key": {"APG01658.1": {"molecular_target": "T1, APG01658.1 (Staphylococcus sp.)", "T1 chain": "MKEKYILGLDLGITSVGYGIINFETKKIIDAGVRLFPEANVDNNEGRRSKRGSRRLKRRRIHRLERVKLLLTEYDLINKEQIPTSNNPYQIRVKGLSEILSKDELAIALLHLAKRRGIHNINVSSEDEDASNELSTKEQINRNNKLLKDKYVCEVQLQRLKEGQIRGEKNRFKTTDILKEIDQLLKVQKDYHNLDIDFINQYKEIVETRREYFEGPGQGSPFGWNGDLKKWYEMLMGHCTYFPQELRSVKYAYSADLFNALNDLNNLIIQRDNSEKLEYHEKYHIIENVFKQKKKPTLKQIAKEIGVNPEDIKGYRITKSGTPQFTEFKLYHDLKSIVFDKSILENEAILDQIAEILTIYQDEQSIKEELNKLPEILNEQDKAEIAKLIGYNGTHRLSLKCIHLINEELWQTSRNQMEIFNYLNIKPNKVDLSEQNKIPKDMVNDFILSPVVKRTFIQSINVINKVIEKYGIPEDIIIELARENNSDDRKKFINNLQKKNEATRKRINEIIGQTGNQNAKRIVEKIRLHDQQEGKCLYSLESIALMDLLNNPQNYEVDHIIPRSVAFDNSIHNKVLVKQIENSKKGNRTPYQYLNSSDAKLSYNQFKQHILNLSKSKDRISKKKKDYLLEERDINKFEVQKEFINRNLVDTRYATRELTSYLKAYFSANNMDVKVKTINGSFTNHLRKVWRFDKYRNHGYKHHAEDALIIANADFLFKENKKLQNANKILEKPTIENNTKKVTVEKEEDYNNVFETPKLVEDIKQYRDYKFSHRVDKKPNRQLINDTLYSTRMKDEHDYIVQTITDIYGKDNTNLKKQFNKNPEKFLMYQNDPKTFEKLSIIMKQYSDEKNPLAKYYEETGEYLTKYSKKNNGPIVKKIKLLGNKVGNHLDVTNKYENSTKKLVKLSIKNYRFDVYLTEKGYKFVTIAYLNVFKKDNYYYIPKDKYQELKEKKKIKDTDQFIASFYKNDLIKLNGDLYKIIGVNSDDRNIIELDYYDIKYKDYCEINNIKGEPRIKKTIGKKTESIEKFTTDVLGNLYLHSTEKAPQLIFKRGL", "assay": "cell_activity; PAM SEQ ID NO 44, 3' of target", "conditions": "tags: N-term SV40 NLS and 3xFLAG, C-term 2x nucleoplasmin NLS in HEK293T"}, "APG06646.1": {"molecular_target": "T2, APG06646.1 (Bacillus sp.)", "T2 chain": "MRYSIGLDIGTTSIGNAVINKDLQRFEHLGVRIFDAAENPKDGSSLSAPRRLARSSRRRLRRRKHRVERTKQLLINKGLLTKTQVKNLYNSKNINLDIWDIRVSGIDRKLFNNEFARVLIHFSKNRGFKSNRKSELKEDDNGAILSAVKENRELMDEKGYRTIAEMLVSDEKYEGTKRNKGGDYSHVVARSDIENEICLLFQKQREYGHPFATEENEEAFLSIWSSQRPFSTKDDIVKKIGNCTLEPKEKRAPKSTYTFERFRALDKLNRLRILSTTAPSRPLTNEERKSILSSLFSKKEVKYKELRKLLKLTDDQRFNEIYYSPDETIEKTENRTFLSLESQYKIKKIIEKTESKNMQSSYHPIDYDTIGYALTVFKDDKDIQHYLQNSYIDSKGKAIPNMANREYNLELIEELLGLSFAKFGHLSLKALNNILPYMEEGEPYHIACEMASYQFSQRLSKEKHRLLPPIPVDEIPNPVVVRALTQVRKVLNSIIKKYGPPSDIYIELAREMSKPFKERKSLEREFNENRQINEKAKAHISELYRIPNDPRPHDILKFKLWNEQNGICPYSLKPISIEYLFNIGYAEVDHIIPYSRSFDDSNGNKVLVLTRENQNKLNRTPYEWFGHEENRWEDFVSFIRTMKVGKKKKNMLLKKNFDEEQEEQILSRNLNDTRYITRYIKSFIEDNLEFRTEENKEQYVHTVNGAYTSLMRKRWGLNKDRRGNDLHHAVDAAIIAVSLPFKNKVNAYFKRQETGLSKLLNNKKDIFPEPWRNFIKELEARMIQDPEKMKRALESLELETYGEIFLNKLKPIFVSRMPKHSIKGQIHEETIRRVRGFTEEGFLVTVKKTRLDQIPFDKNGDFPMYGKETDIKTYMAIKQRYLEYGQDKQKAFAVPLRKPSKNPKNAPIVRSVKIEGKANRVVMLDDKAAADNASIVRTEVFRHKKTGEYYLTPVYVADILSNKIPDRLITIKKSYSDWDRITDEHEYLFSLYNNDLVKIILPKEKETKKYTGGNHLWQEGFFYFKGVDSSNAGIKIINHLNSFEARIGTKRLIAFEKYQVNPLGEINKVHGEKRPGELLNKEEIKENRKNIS", "assay": "cell_activity; PAM NNNNC 3'", "conditions": "tags: N-term SV40 NLS and 3xFLAG, C-term 2x nucleoplasmin NLS in HEK293T"}}}
{"binder": "guide 428 ; AurkB target 491 (ssRNA ; dsDNA) RNA: GGCUGGGCCAUUAAAACCUCUCCAGUUUUAGUACUCUGUAAUUUUAGGUAUGAAAGUCAUACCUAAAAUUACAGAAUCUACUGAAACAAGACUAUAUGUCGUGUUUAUCCCACUAAUUUAUUAGUGGGAUUUU DNA 1: GGCTGGGCCATTAAAACCTCTCCA DNA 2: TGGAGAGGTTTTAATGGCCCAGCC", "values": [{"measurement": "activity", "setting": "APG01658.1", "result": 13.1, "unit": "% editing"}]}
{"binder": "guide 451 ; TRA target 512 (ssRNA ; dsDNA) RNA: CCCUGGCUGUGCACAUUCCCUCCUGGCCAUAAUUCCUCUGUAAAACUUAAAGAAGGUUUAUAGAGUUAUUAUGGUAAGGCAAUAUGCCGUGGCGUUGGGGAUCGCCUAUGUCCGGUUUUACCGGAUCUCCCUAAAGGUGACUAACUUUGGUUAGUCACCUUUUU DNA 1: CCCTGGCTGTGCACATTCCCTCCTG DNA 2: CAGGAGGGAATGTGCACAGCCAGGG", "values": [{"measurement": "activity", "setting": "APG06646.1", "result": 7.03, "unit": "% editing"}]}
{"binder": "guide 423 ; RelA target 486 (ssRNA ; dsDNA) RNA: ACAGUGCGCAUCUCCCUGGUCACCGUUUUAGUACUCUGUAAUUUUAGGUAUGAAAGUCAUACCUAAAAUUACAGAAUCUACUGAAACAAGACUAUAUGUCGUGUUUAUCCCACUAAUUUAUUAGUGGGAUUUU DNA 1: ACAGTGCGCATCTCCCTGGTCACC DNA 2: GGTGACCAGGGAGATGCGCACTGT", "values": [{"measurement": "activity", "setting": "APG01658.1", "result": 10, "unit": "% editing"}]}
{"binder": "guide 450 ; AurkB target 493 (ssRNA ; dsDNA) RNA: CAUGGCAGUACAUUAGAGCAGCCAUAAUUCCUCUGUAAAACUUAAAGAAGGUUUAUAGAGUUAUUAUGGUAAGGCAAUAUGCCGUGGCGUUGGGGAUCGCCUAUGUCCGGUUUUACCGGAUCUCCCUAAAGGUGACUAACUUUGGUUAGUCACCUUUUU DNA 1: CATGGCAGTACATTAGAGCA DNA 2: TGCTCTAATGTACTGCCATG", "values": [{"measurement": "activity", "setting": "APG06646.1", "result": 7.94, "unit": "% editing"}]}
{"binder": "guide 462 ; AurkB target 523 (ssRNA ; dsDNA) RNA: GUUUUAAUGGCCCAGCCUCACACCCGCCAUAAUUCCUCUGUAAAACUUAAAGAAGGUUUAUAGAGUUAUUAUGGUAAGGCAAUAUGCCGUGGCGUUGGGGAUCGCCUAUGUCCGGUUUUACCGGAUCUCCCUAAAGGUGACUAACUUUGGUUAGUCACCUUUUU DNA 1: GTTTTAATGGCCCAGCCTCACACCC DNA 2: GGGTGTGAGGCTGGGCCATTAAAAC", "values": [{"measurement": "activity", "setting": "APG06646.1", "result": 10.9, "unit": "% editing"}]}
